The text below walks through data of patent US20180037644A1 (Pfizer, published 2018).

Where two headings read alike, the source gives them in different places.

What all share (assay): cell-based or functional assay
The target in assay [1] is T1, human IL-33 (mm2) (human, UniProt O95760 112-270).
T1 chain: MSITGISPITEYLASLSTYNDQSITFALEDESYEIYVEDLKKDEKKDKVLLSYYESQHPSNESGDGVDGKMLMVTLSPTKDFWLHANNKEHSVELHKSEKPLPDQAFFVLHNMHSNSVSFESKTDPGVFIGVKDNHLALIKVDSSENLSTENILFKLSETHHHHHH

In assay [2] the target is T2, cynomolgus monkey IL-33 (cys mut) (cynomolgus monkey).
T2 chain: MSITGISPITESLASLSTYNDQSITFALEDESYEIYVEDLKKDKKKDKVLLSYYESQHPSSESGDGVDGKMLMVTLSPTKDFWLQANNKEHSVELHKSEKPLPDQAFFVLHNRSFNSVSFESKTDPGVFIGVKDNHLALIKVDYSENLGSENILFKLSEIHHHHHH

For assay [3], the target named is T1, human IL-33 (mm2).
Assay [4] has as its target T3, human IL-33 WT (R&D) (human, UniProt O95760 112-270).
T3 sequence: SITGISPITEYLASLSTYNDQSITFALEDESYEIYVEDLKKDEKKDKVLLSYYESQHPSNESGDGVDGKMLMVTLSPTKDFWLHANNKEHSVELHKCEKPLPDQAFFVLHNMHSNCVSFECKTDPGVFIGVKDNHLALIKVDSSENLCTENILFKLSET

Assay [5] has as its target T1, human IL-33 (mm2).
In assay [6] the target is T2, cynomolgus monkey IL-33 (cys mut).
In assay [7] the target is T1, human IL-33 (mm2).
For assay [8], the target named is T1, human IL-33 (mm2).
For assay [9], the target named is T2, cynomolgus monkey IL-33 (cys mut).
Assay [10] concerns the target T4, native human IL-33 from human lung fibroblast (HFL-1) lysate (human, UniProt O95760 1-270, limits assumed).
T4 sequence (looked up): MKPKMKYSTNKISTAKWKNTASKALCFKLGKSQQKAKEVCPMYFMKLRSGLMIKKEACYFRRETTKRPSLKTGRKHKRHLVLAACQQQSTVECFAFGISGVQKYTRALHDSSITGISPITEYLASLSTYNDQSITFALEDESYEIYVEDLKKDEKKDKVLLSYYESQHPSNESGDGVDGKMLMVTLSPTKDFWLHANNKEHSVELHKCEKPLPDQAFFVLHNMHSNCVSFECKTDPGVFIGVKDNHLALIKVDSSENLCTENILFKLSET

For assay [11], the target named is T1, human IL-33 (mm2).
For assay [12], the target named is T3, human IL-33 WT (R&D). The source holds these as a separate data set.
The target in assay [13] is T2, cynomolgus monkey IL-33 (cys mut).
Assay [14] deals with T5, wild-type cynomolgus monkey IL-33 (cynomolgus monkey).
T5 chain: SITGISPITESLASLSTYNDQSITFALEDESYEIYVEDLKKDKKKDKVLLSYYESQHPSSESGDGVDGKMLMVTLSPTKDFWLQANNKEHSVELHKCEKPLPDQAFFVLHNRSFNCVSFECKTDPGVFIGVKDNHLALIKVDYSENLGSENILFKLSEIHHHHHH

Assay [15] concerns the target T1, human IL-33 (mm2).
The target in assay [16] is T3, human IL-33 WT (R&D). The source holds these as a separate data set.
The target of assay [17] is T2, cynomolgus monkey IL-33 (cys mut).
Assay [18] addresses T5, wild-type cynomolgus monkey IL-33.

B1: IL33-55 (antibody, human IgG1, kappa, V domains shown)
VH: EVQLVESGGGLVQPGGSLRLSCAASGFTFSSYWMYWVRQAPGKGLEWVASITPNGGDTYYPDSVKGRFTISRDNAKNSLYLQMNSLRAEDTAVYYCARGHYYYTSYSLGYWGQGTLVTVSS
VL: DIQMTQSPSSLSASVGDRVTITCKASQNINKHLDWYQQKPGKAPKLLIYFTNNLQTGVPSRFSGSGSGTDFTLTISSLQPEDFATYYCFQYNNGWTFGGGTKVEIKR
For the molecule B1, the figures for the “IC50, HEK293 ST2 NFkB” value (with human IL-33 (mm2) [1]; in [2]) were 0.084 nM and 0.19 nM, respectively.

B2: IL33-136 (antibody, human IgG1, kappa, V domains shown)
VH: EVQLVESGGGLVQPGGSLRLSCAASGFTFSSYWMYWVRQAPGKGLEWVASITPNGGETYYPDSVKGRFTISRDNAKNSLYLQMNSLRAEDTAVYYCARGHYYYTSYSLGYWGQGTLVTVSS
VL: DIQMTQSPSSLSASVGDRVTITCKASQNINKHLDWYQQKPGKAPKLLIYFTNNLQTGVPSRFSGSGSGTDFTLTISSLQPEDFATYYCFQYNQGWTFGGGTKVEIKR
B2: in the assay with human IL-33 (mm2) [3], the “IC50, whole blood IFNγ” value was 0.098 nM. The “IC50, HEK293 ST2 NFkB WT IL-33” value in the assay with human IL-33 WT (R&D) [4] worked out at 0.037 nM.

B3: IL33-56 (antibody, human IgG1, kappa, V domains shown)
VH: EVQLVESGGGLVQPGGSLRLSCAASGFTFSSYWMYWVRQAPGKGLEWVASITPNGGETYYPDSVKGRFTISRDNAKNSLYLQMNSLRAEDTAVYYCARGHYYYTSYSLGYWGQGTLVTVSS
VL: DIQMTQSPSSLSASVGDRVTITCKASQNINKHLDWYQQKPGKAPKLLIYFTNNLQTGVPSRFSGSGSGTDFTLTISSLQPEDFATYYCFQYNNGWTFGGGTKVEIKR
Consider B3, for which the “IC50, HEK293 ST2 NFkB” value in the assay with human IL-33 (mm2) [1] worked out at 0.053 nM; in [2], 0.104 nM.

B4: IL33-68 (antibody, human IgG1, kappa, V domains shown)
VH: EVQLVESGGGLVQPGGSLRLSCAASGFTFSSYWMYWVRQAPGKGLEWVASITPNGGNTYYPDSVKGRFTISRDNAKNSLYLQMNSLRAEDTAVYYCARGHYYYTAYSLGYWGQGTLVTVSS
VL: DIQMTQSPSSLSASVGDRVTITCKASQNINKHLDWYQQKPGKAPKLLIYFTNNLQTGVPSRFSGSGSGTDFTLTISSLQPEDFATYYCFQYNNGWTFGGGTKVEIKR
For B4, the “IC50, HEK293 ST2 NFkB” value in the assay with human IL-33 (mm2) [1] came to 0.046 nM; in assay [2] it was 0.062 nM.

B5: rat 7E8 (7E8 hybridoma) (antibody, V domains shown)
VH: EVQLVETGGGLVQPGRSLKLSCKTSGFTFSSYWMYWIRQAPGKGLEWVSSITPNGGNTYYPDSVKGRFTISRDNAENTIYLQMSSLRSEDTATYFCAKGHYYYTSYSLGYWGQGSLVTVSS
VL: EIQMTQSPSVLSASVGDRVTLSCKASQNINKHLDWYQQKLGEAPKLLIYFTNNLQTGIPSRFSGSGSGTDCTLTINSLQPGDVATYFCFQYNNGWTFGGGTKLELD
As for B5, the “IC50, HEK293 ST2 NFkB” value with human IL-33 (mm2) [5] is 0.018 nM; in assay [6], 0.21 nM; with human IL-33 (mm2) [7] it was 0.024 nM; with human IL-33 (mm2) [8] it was 0.043 nM; in [9] it was 0.032 nM. Further, in assay [10], the “% inhibition 0.1 nM Ab, HEK293 ST2 NFkB” value worked out at 112%. The “% inhibition 1 nM Ab, HEK293 ST2 NFkB” value in assay [10] is 110%. For the same molecule, the “% inhibition 10 nM Ab, HEK293 ST2 NFkB” value in [10] is 113%.

B6: rat 9B3 (9B3 hybridoma) (antibody, V domains shown)
VH: EVQLVETGGGLVQPGRSLKLSCVASGFTFSNYWMYWIRQAPGMGLEWVSSINNDGGNTYYLDSVKGRFTISRNNAENTVYLQMNSLRSEDTATYYCAKGHYSYSSYSFSYWGQGTLVTVSS
VL: DIQMTQSPSVLSASVGDRVTLSCKASHNINKHLDWCQQKVGEAPKLLIYFTNNLQTGIPSRFSGSGSGTDYTLTISSLQPEDVATYFCFQYNSGWTFGGGTKLELK
In general, % inhibition refers to the percentage by which the read-out fell short of the control. On to B6, for which the “IC50, HEK293 ST2 NFkB” value with human IL-33 (mm2) [5] came out at 0.076 nM. Further, the “% inhibition at 20 nM, HEK293 ST2 NFkB” value in [6] came to 23%. Besides, the “IC50, HEK293 ST2 NFkB” value in the assay with human IL-33 (mm2) [8] amounted to 0.17 nM. Besides, the “IC50, HEK293 ST2 NFkB” value in [9] turned out to be 2.72 nM. In [10], the “% inhibition 0.1 nM Ab, HEK293 ST2 NFkB” value is 55.1%; the “% inhibition 1 nM Ab, HEK293 ST2 NFkB” value amounted to 99.2%; the “% inhibition 10 nM Ab, HEK293 ST2 NFkB” value came out at 108%.

B7: IL33-265 (antibody, human IgG1, kappa, V domains shown)
VH: EVQLVESGGNLEQPGGSLRLSCTASGFTFSRSAMNWVRRAPGKGLEWVSGISGSGGRTYYADSVKGRFTISRDNSKNTLYLQMNSLSAEDTAAYYCAKDSYTTSWYGGMDVWGHGTTVTVSS
VL: DIQMTQSPSSVSASVGDRVTITCRASQGIFSWLAWYQQKPGKAPKLLIYAASSLQSGVPSRFSGSGSGTDFTLTISSLQPEDFAIYYCQQANSVPITFGQGTRLEIKR
For the molecule B7, the “IC50, HEK293 ST2 NFkB” value is 0.014 nM with human IL-33 (mm2) [11] and 1.56 nM in assay [13]. Further, the “IC50, HEK293 ST2 NFkB (DTT-pretreated IL-33)” value in the assay with human IL-33 WT (R&D) [12] is 0.05 nM; in [14], 12.7 nM. Further, the “Cynomolgus monkey:human IC50 ratio: cysteine mutant IL-33” value in assay [13] is 109. Also, the “Cynomolgus monkey:human IC50 ratio: wild-type IL-33” value in assay [14] turned out to be 256.

B8: rat 30A1 (30A1 hybridoma) (antibody, V domains shown)
VH: QVNLLQSGATLVKPGASMKMSCKASGYSFTDYWVSWVKQSHGKSLEWIGEIYPNSGANNFNKEFKDKATLTVDKSTSTAYMELTRLTSEDSAVYYCTRGPYYYSSQIIFAYWGQGTLVTVSS
VL: IIVMTQSPKSMSISVGDRVTMNCKASQNVGNNIAWYRQKPGQSPELLIYYASNRYTGVPDRFTGGGYGTDFTLTINSVQAEDAAFYYCQRIYNSPPTFGGGTKVELK
Regarding B8, the “IC50, HEK293 ST2 NFkB” value with human IL-33 (mm2) [5] was found to be 0.665 nM; in [6], 2.95 nM; with human IL-33 (mm2) [8], 0.47 nM; in assay [9], 0.14 nM. In assay [10], the “% inhibition 0.1 nM Ab, HEK293 ST2 NFkB” value came out at 35.4%. Also, the “% inhibition 1 nM Ab, HEK293 ST2 NFkB” value in assay [10] stood at 77.3%. Moreover, the “% inhibition 10 nM Ab, HEK293 ST2 NFkB” value in [10] was determined as 108%.

B9: rat 30B11 (30B11 hybridoma) (antibody, V domains shown)
VH: QVKLLQSGAALVKPGASVKMSCATSGFSFTDYWVSWVKQSHGKGLEWIGEIYPNSGADNFNENFKGKATLTVDKSTSTAYMELSRLTSEDSAIYYCTRGPYYYSTQIIFAYWGQGTLVTVSS
VL: NIVMTQSPKSMSISVGDRVTMNCKASQNVGNNLAWYQQKPGQSPKLLIYYASNRYTGVPDRFTGGGYGTDFTLTINSVQAEDAAFYYCQRIYNSPPTFGGGTKVELR
For B9, the “IC50, HEK293 ST2 NFkB” value in the assay with human IL-33 (mm2) [5] amounted to 0.056 nM; in [6], 0.2 nM; with human IL-33 (mm2) [8], 0.038 nM; in assay [9], 0.084 nM. Moreover, in assay [10], the “% inhibition 0.1 nM Ab, HEK293 ST2 NFkB” value was determined as 93.5%. Further, the “% inhibition 1 nM Ab, HEK293 ST2 NFkB” value in assay [10] turned out to be 108%. Moreover, the “% inhibition 10 nM Ab, HEK293 ST2 NFkB” value in assay [10] was found to be 113%.

B10: IL33-312 (antibody, human IgG1, lambda, V domains shown)
VH: EVQLLESGGGLVQPGGSLRLSCAASGFTFSSYAMSWVRQAPGKGLEWVSGISAIDQSTYYADSVKGRFTISRDNSKNTLYLQMNSLRAEDTAVYYCARQKFMQLWGGGLRYPFGYWGQGTMVTVSS
VL: SYVLTQPPSVSVSPGQTASITCSGEGMGDKYAAWYQQKPGQSPVLVIYRDTKRPSGIPERFSGSNSGNTATLTISGTQAMDEADYYCGVIQDNTGVFGGGTKLTVLG
As for B10, the “IC50, HEK293 ST2 NFkB” value with human IL-33 (mm2) [15] was 0.003 nM; with human IL-33 WT (R&D) [16] it was 0.008 nM; in assay [17], 0.003 nM; in assay [18], 0.043 nM. For the same molecule, in assay [17], the “Cynomolgus monkey:human IC50 ratio: cysteine mutant IL-33” value is 1.1. The “Cynomolgus monkey:human IC50 ratio: wild-type IL-33” value in assay [18] stood at 5.4.
